The values below come from the Human Domainome abundance scans (Beltran et al. 2025).

± gives the uncertainty stated by the source.

B1: Myocardin-related transcription factor A, residues 341 to 383; numbered along this chain, Q969V6 (parent)
chain: GALPANLDDMKVAELKQELKLRSLPVSGTKTELIERLRAYQDQ

The data set covers variants of B1. The data set is described as follows: abundance fitness (aPCA) (normalised: wild type 0, dead -1); higher = more abundant; growth selection in yeast, the domain comes from the species named. The note with it: Homo sapiens.
Consider L3R, for which the abundance fitness was -0.021 ± 0.054.
As for L3V, the figure is 0.073 ± 0.078; as for L3T, -0.598 ± 0.15.
Turning to L3C, the abundance fitness was 0.016 ± 0.083.
With L3M, the abundance fitness is -0.022 ± 0.098.
Next, L3I: 0.144 ± 0.092; K11L: -0.197 ± 0.074; K11W: -0.635 ± 0.081.
Regarding K11C, the abundance fitness was -0.126 ± 0.094.
As for A2R, the figure is 0.034 ± 0.12; as for A2M, 0.433 ± 0.09; as for A2K, 0.588 ± 0.2.
Next, A2L: 0.208 ± 0.11.
For A2T, the abundance fitness was determined as 0.161 ± 0.16.
For A2D, the abundance fitness is 0.26 ± 0.12.
As for S27T, the figure is -0.196 ± 0.23.
On to S27D, for which the abundance fitness amounted to 0.11 ± 0.097.
With S27L, the abundance fitness is -0.376 ± 0.16.
Next, S27Q: -0.424 ± 0.26; N6A: -0.229 ± 0.084; N6R: -0.048 ± 0.071.
In the case of N6V, the abundance fitness is -0.127 ± 0.1.
As for N6K, the figure is 0.157 ± 0.074; as for N6M, 0.135 ± 0.072.
With N6L, the abundance fitness is -0.124 ± 0.072.
Next, V12R: -0.177 ± 0.073; V12G: -0.218 ± 0.064.
As for V12D, the figure is -0.363 ± 0.089; as for V12S, -0.336 ± 0.1.
With L19G, the abundance fitness is -0.536 ± 0.066.
Next, L19K: -0.8 ± 0.12; T31Q: -0.138 ± 0.068; T31R: 0.012 ± 0.055.
Next, T31N: -0.332 ± 0.25; T31A: 0.098 ± 0.058; T31H: -0.129 ± 0.17.
With G28Q, the abundance fitness is -0.659 ± 0.1.
With G28T, the abundance fitness is -1.56 ± 0.43.
As for G28V, the figure is -1.38 ± 0.15; as for K30A, -0.403 ± 0.088.
For K30T, the abundance fitness was -0.091 ± 0.092.
Take K30V: the abundance fitness was -0.509 ± 0.09.
Next, K30E: -0.269 ± 0.093; K20D: -0.061 ± 0.12; K20W: -0.372 ± 0.072.
As for K20V, the figure is -0.041 ± 0.072.
Next, M10K: -0.151 ± 0.45.
Take M10I: the abundance fitness was -0.302 ± 0.18.
Take M10S: the abundance fitness is -0.256 ± 0.09.
Next, M10P: -0.531 ± 0.13; S23K: 0.142 ± 0.15; S23E: 0.092 ± 0.084.
For the variant R22E, the abundance fitness was -0.163 ± 0.11.
Consider R22T, for which the abundance fitness is -0.301 ± 0.2.
As for R22Q, the figure is -0.079 ± 0.088; as for R22G, -0.54 ± 0.096; as for L15G, -0.558 ± 0.063.
For L15A, the abundance fitness is -0.336 ± 0.11.
With L15C, the abundance fitness is -0.999 ± 0.27.
In the case of L15H, the abundance fitness was -0.621 ± 0.21.
Consider L15K, for which the abundance fitness was -0.508 ± 0.14.
As for R36P, the figure is -0.066 ± 0.1; as for R36K, -0.234 ± 0.1.
As to R36V, the abundance fitness is -0.339 ± 0.061.
Next, K16M: 0.169 ± 0.18; K16V: -0.143 ± 0.076.
As for T29W, the figure is -0.601 ± 0.12; as for T29Q, 0.157 ± 0.14; as for T29I, -0.362 ± 0.11.
As for T29E, the figure is 0.009 ± 0.079.
Turning to T29K, the abundance fitness is -0.092 ± 0.093.
For T29H, the abundance fitness is -0.142 ± 0.17.
Q41F: the abundance fitness is 0.222 ± 0.19.
Next, Q41W: 0.083 ± 0.083; Q41N: 0.18 ± 0.21.
As for Q41G, the figure is 0.262 ± 0.058.
Consider L24Y, for which the abundance fitness is -1.02 ± 0.2.
Next, L24P: -0.639 ± 0.13; L24G: -0.471 ± 0.077.
As for E35P, the abundance fitness was -0.505 ± 0.1.
As for E35Q, the figure is 0.398 ± 0.12; as for Q43C, -0.037 ± 0.1.
Take Q43E: the abundance fitness was 0.357 ± 0.27.
As for Q43V, the figure is 0.334 ± 0.1; as for Q43S, -0.029 ± 0.13; as for Q43H, -0.01 ± 0.25.
In the case of Q43T, the abundance fitness was 0.164 ± 0.1.
As for Q43W, the abundance fitness came to 0.208 ± 0.23.
As for P25D, the figure is -0.197 ± 0.088; as for P25V, -0.358 ± 0.11.
As for P25Q, the figure is -0.167 ± 0.44; as for A39K, 0.284 ± 0.064; as for A39P, 0.168 ± 0.096.
Next, V26A: 0.18 ± 0.082.
As to V26M, the abundance fitness was -0.032 ± 0.074.
Next, L37K: -0.455 ± 0.14; L37D: -0.298 ± 0.087.
For L37A, the abundance fitness is -0.435 ± 0.076.
Next, L37Q: -0.631 ± 0.1.
For the variant R38L, the abundance fitness was -0.224 ± 0.083.
Next, R38Q: -0.24 ± 0.074; R38V: -0.152 ± 0.071.
As for R38C, the figure is -0.301 ± 0.086; as for D9P, -0.416 ± 0.25.
In the case of D9Q, the abundance fitness stood at 0.085 ± 0.077.
Turning to D9M, the abundance fitness came to 0.019 ± 0.18.
As for D9T, the abundance fitness is 0.243 ± 0.11.
Take D42W: the abundance fitness was -0.31 ± 0.12.
D42H: the abundance fitness is -0.23 ± 0.093.
For D42A, the abundance fitness worked out at 0.205 ± 0.066.
With E32G, the abundance fitness was -0.606 ± 0.071.
As for E32M, the figure is -0.239 ± 0.16.
E32Q: the abundance fitness was -0.038 ± 0.086.
As for E32A, the figure is -0.053 ± 0.063; as for E32L, -0.472 ± 0.081; as for E32R, -0.319 ± 0.055.
Next, Q17V: -0.207 ± 0.076.
As for L21A, the figure is 0.038 ± 0.075; as for L21H, 0.003 ± 0.23.
Regarding L21W, the abundance fitness is -0.283 ± 0.078.
Next, D8K: -0.018 ± 0.077; D8W: 0.185 ± 0.071; D8C: 0.176 ± 0.25.
As for D8Q, the abundance fitness turned out to be 0.146 ± 0.15.
As for D8M, the abundance fitness is -0.125 ± 0.085.
As for A5M, the figure is 0.292 ± 0.07; as for A5G, 0.081 ± 0.059.
Next, A5T: 0.185 ± 0.069; A5F: -0.012 ± 0.17; A5Q: -0.025 ± 0.099.
For I34Y, the abundance fitness came out at 0.017 ± 0.12.
Next, I34A: -0.187 ± 0.081; I34L: -0.146 ± 0.086.
For I34R, the abundance fitness was -0.146 ± 0.063.
As for I34W, the figure is -0.363 ± 0.077.
As to Y40G, the abundance fitness was found to be 0.202 ± 0.065.
As for Y40E, the figure is 0.179 ± 0.11; as for Y40W, 0.178 ± 0.073.
Take Y40M: the abundance fitness turned out to be 0.02 ± 0.087.
As for Y40A, the figure is 0.247 ± 0.064; as for E14V, -0.127 ± 0.1.
As for E14M, the figure is 0.022 ± 0.13; as for E14F, -0.3 ± 0.2.
As for E14Y, the figure is -0.147 ± 0.089; as for P4L, 0.322 ± 0.11; as for P4E, 0.349 ± 0.11.
With P4Q, the abundance fitness came to 0.293 ± 0.2.
Next, P4H: 0.093 ± 0.1.
Regarding P4K, the abundance fitness is 0.17 ± 0.12.
As for P4C, the figure is 0.211 ± 0.081; as for P4I, 0.301 ± 0.12.
Next, G1E: -0.303 ± 0.12; G1N: -0.205 ± 0.11.
As for G1R, the abundance fitness was -0.165 ± 0.16.
Next, G1Q: -0.306 ± 0.088.
Next, L33A: -0.261 ± 0.26.
Take L33P: the abundance fitness was -0.403 ± 0.17.
As for L7A, the figure is -0.097 ± 0.062; as for L7Q, -0.763 ± 0.14; as for L7W, -0.429 ± 0.077.
For the variant L7C, the abundance fitness was -0.157 ± 0.14.
Regarding L7D, the abundance fitness was -1.17 ± 0.17.
As for E18G, the figure is -0.701 ± 0.084; as for E18A, -0.007 ± 0.067.
Next, E18H: -0.432 ± 0.23.
As for E18R, the figure is -0.593 ± 0.058.
For the variant E18K, the abundance fitness was -0.365 ± 0.12.
